Test results: patent US20100003258A1 (AVEO PHARMACEUTICALS, published 2010)

Legend:
[1] = biological target: T1, recombinant human FGFR3 IIIb Fc fusion protein (human, UniProt P22607-2 23-377, limits assumed); assay: SPR (Biacore T100), antibody captured on anti-mouse Ig, rhFGFR3 IIIb Fc as analyte, 25 C
T1 construct: Bought reagent; the IIIb splice isoform is meant; also called rhFGFR3 IIIb Fc; hFGFR3 IIIb; not shown: Fc fragment (removable by Factor Xa, detected with anti-human IgG)
T1 sequence (looked up): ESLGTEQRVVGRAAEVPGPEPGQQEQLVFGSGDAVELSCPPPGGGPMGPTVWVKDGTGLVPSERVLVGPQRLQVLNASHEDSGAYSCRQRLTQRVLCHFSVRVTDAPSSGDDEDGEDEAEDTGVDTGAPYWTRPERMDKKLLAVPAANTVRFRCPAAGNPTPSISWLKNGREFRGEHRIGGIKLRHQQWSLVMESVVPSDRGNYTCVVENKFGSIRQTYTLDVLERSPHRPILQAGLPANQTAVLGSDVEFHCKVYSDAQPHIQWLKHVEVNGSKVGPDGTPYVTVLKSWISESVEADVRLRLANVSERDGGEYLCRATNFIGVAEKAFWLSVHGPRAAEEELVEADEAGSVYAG
Method: (§1) The binding affinities and kinetics of interaction of the monoclonal antibodies (15D8, 27H2, 2G4, and 4E7(7D12)) produced in Example 1 against recombinant human FGFR3 (IIIb and IIIc isoforms) Fc fusion protein (rhFGFR3 IIIb Fc or rhFGFR3 IIIc Fc) were measured by surface plasmon resonance using a Biacore™ T100 (Biacore) instrument.
(§2) Rabbit anti-mouse immunoglobulins (Biacore, Catalog No. BR-1005-14) were immobilized on carboxymethylated dextran CM4 sensor chips (Biacore, Catalog No. BR-1005-34) by amine coupling (Biacore, Catalog No. BR-1000-50) using a standard coupling protocol according to manufacturer's instructions.
(§3) The antibodies were captured in an individual flow cell at a flow rate of 10 μl/min. Injection time was varied for each antibody to yield approximately 40-50 RU of antibody captured for each cycle. Buffer or rhFGFR3 IIIb Fc (R&D Systems, Catalog No. 1264-FR-050) or rhFGFR3 IIIc Fc (R&D Systems, Catalog No. 766-FR-050) diluted in running buffer was injected sequentially over a reference surface (no antibody captured) and the active surface (antibody to be tested) for 300 sec at 60 μl/min. The dissociation phase was monitored for 30 minutes. The surface was then regenerated with two 60-seconds injection of 10 mM Glycine-HCl, pH 1.7 (made from Glycine pH 1.5 (Biacore, Catalog No. BR-1003-54) and pH 2.0 (Biacore, Catalog No. BR-1003-55)) at a flow rate of 60 μl/min. rhFGFR3 Fc concentrations tested were 0.62 nM to 40 nM.

[2] = biological target: T1, recombinant human FGFR3 IIIb Fc fusion …; assay: SPR (Biacore T100), antibody captured on anti-mouse Ig, rhFGFR3 IIIb Fc as analyte, 37 C
Method: as §1, §2, §3

[3] = biological target: T2, recombinant human FGFR3 IIIc Fc fusion protein (human, UniProt P22607 23-375); assay: kinetic exclusion assay (KinExA), antibody and rhFGFR3 IIIc Fc in solution, room temperature
T2 construct: Bought reagent; also called rhFGFR3 IIIc Fc; not shown: Fc fragment (removable by Factor Xa)
T2 sequence (looked up): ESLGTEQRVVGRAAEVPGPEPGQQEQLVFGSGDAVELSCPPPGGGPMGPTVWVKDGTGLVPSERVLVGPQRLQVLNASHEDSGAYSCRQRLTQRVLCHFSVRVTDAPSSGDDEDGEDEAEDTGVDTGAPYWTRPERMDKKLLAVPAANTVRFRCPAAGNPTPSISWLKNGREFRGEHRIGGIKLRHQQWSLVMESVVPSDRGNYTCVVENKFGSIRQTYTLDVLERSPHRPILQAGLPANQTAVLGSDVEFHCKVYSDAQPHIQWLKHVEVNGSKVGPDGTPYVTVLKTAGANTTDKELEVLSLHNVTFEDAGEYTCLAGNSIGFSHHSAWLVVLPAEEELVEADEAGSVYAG
Method: The binding affinities of monoclonal 15D8, chimeric 15D8, and humanized 15D8 antibodies for recombinant human FGFR3 IIIc Fc fusion protein was measured using a kinetic exclusion assay, KinExA® technology (Sapidyne Instruments, Inc.). First, beads were prepared for the purpose of detecting anti-FGFR3 antibody that is unbound to FGFR3 IIIc Fc. This was done by adding 1 ml recombinant human FGFR3IIIc Fc (R&D Systems, Inc.) 10 ug/ml in PBS to 200 mg polymethyl methacrylate (PMMA) hard beads. The suspension was mixed and rotated for two hours at room temperature. Next, the mixture was centrifuged and supernatant was discarded. The bead pellet was rinsed once with 1 ml BSA 10 mg/ml in PBS by incubation for 1 hour at room temperature with rotation. The beads were resuspended in 27 ml PBS with 0.02% NaN₃. Next, a fixed concentration of anti-FGFR3 antibody (0.5 nM) was incubated in solution with a series of FGFR3 IIIc Fc concentrations (started with 50 nM (in PBS BSA (1 mg/ml)) and serially diluted 1:2 in PBS BSA(1 mg/ml) to obtain 50 to 0.0122 nM FGFR3 III Fc) at room temperature for at least 4 hours to allow equilibrium to be reached. By measuring the amount of anti-FGFR3 antibody that is not bound to FGFR3 IIIc Fc, the KD was determined. Unbound anti-FGFR3 antibody was detected by allowing the anti-FGFR3 antibody/FGFR3 IIIc Fc solution to flow through the FGFR3 IIIc Fc PMMA beads. The anti-FGFR3 antibody captured by these beads was then detected with Cy5-conjugated anti-human secondary antibody 0.3 ug/ml (Jackson ImmunoResearch) or Cy5-conjugated anti-mouse secondary antibody (Jackson ImmunoResearch) 0.5 ug/ml in PBS BSA 1 mg/ml. The detected signal for captured anti-FGFR3 antibody is directly proportional to the remaining free binding sites, thus allowing KD determination. The experiments were repeated, varying the concentrations of anti-FGFR3 antibody or FGFR3 III Fc used in solution, and the KD was calculated with the KinExA® software using n-curve analysis.

- Kd [1]: 2.6 nM
- koff [1]: 0.00033 s⁻¹
- kon [1]: 200000 M⁻¹ s⁻¹
- Kd [2]: 3.2 nM
- koff [2]: 0.0003 s⁻¹
- kon [2]: 94000 M⁻¹ s⁻¹
- Kd [3]: 0.0806 nM
B1: anti-FGFR3 monoclonal antibody 15D8 (antibody, mouse IgG1, kappa)
heavy: EIQLQQSGPELVKPGASVKVSCKASGYAFTSYNMYWVKQSHGKSLEWIGYIDPYNGGTSYNQKFKGKATLTVDKSSSTAYMHLNSLTSEDSAVYYCAREGGNYEAWFAYWGQGTLVTVSAAKTTPPSVYPLAPGSAAQTNSMVTLGCLVKGYFPEPVTVTWNSGSLSSGVHTFPAVLQSDLYTLSSSVTVPSSTWPSETVTCNVAHPASSTKVDKKIVPRDCGCKPCICTVPEVSSVFIFPPKPKDVLTITLTPKVTCVVVDISKDDPEVQFSWFVDDVEVHTAQTQPREEQFNSTFRSVSELPIMHQDWLNGKEFKCRVNSAAFPAPIEKTISKTKGRPKAPQVYTIPPPKEQMAKDKVSLTCMITDFFPEDITVEWQWNGQPAENYKNTQPIMDTDGSYFVYSKLNVQKSNWEAGNTFTCSVLHEGLHNHHTEKSLSHSPGK
light: QIVLTQSPALMSASPGEKVTMTCSASSSVSYMYWYQQKPRSSPKPWIYLTSYLASGVPARFSGSGSGTSYSLTISSMEAEDAATYYCQQWSSYPLTFGAGTKLELKRADAAPTVSIFPPSSEQLTSGGASVVCFLNNFYPKDINVKWKIDGSERQNGVLNSWTDQDSKDSTYSMSSTLTLTKDEYERHNSYTCEATHKTSTSPIVKSFNRNEC
notes: also called 15D8 IgG1; murine antibody 15D8
